Experimental data from patent publication US20170209564A1.

Key:
Experiment in all cases: ELISA, coated CR6261, P. pastoris medium
Details in all cases: remark: other sources report otherwise
84D3 = molecular target: 84D3
55H2 = molecular target: 55H2
58A5 = molecular target: 58A5
4C1 = molecular target: 4C1
29C2 = molecular target: 29C2
74H9 = molecular target: 74H9
69D2 = molecular target: 69D2
54H4 = molecular target: 54H4
91C4 = molecular target: 91C4
87H5 = molecular target: 87H5
63C3 = molecular target: 63C3
6E12 = molecular target: 6E12
78G2 = molecular target: 78G2
26H1 = molecular target: 26H1
56F4 = molecular target: 56F4
11B4 = molecular target: 11B4
56D2 = molecular target: 56D2
850 = molecular target: 850
55G7 = molecular target: 55G7
12C6 = molecular target: 12C6
61A9 = molecular target: 61A9
36D6 = molecular target: 36D6
48B10 = molecular target: 48B10
81F11 = molecular target: 81F11
7B6 = molecular target: 7B6
86B3 = molecular target: 86B3
76A10 = molecular target: 76A10
35H3 = molecular target: 35H3
69G8 = molecular target: 69G8
71H2 = molecular target: 71H2
8A10 = molecular target: 8A10
8D7 = molecular target: 8D7
96G5 = molecular target: 96G5
91F10 = molecular target: 91F10
79F8 = molecular target: 79F8
58A11 = molecular target: 58A11
53G10 = molecular target: 53G10
75G5 = molecular target: 75G5
11H6 = molecular target: 11H6
91C8 = molecular target: 91C8
7D9 = molecular target: 7D9
2C4 = molecular target: 2C4
6A1 = molecular target: 6A1
75E9 = molecular target: 75E9
10F9 = molecular target: 10F9
86F1 = molecular target: 86F1
27B10 = molecular target: 27B10
50G10 = molecular target: 50G10

B1: CR6261 (antibody, V domains shown)
VH: EVQLVESGAEVKKPGSSVKVSCKASGGPFRSYAISWVRQAPGQGPEWMGGIIPIFGTTKYAPKFQGRVTITADDFAGTVYMELSSLRSEDTAMYYCAKHMGYQVRETMDVWGKGTTVTVSS
VL: QSVLTQPPSVSAAPGQKVTISCSGSSSNIGNDYVSWYQQLPGTAPKLLIYDNNKRPSGIPDRFSGSKSGTSATLGITGLQTGDEANYYCATWDRRPTAYVVFGGGTKLTVLG
CR6261 binding signal (84D3): 84400 | CR6261 binding signal (55H2): 58100 | CR6261 binding signal (58A5): 90700 | CR6261 binding signal (4C1): 386000 | CR6261 binding signal (29C2): 178000 | CR6261 binding signal (74H9): 1.28e+06 | CR6261 binding signal (69D2): 446000 | CR6261 binding signal (54H4): 292000 | CR6261 binding signal (91C4): 1.16e+06 | CR6261 binding signal (87H5): 78100 | CR6261 binding signal (63C3): 188000 | CR6261 binding signal (6E12): 373000 | CR6261 binding signal (78G2): 56700 | CR6261 binding signal (26H1): 79700 | CR6261 binding signal (56F4): 186000 | CR6261 binding signal (11B4): 166000 | CR6261 binding signal (56D2): 146000 | CR6261 binding signal 850: 196000 | CR6261 binding signal (55G7): 616000 | CR6261 binding signal (12C6): 289000 | CR6261 binding signal (61A9): 383000 | CR6261 binding signal (36D6): 71300 | CR6261 binding signal (48B10): 103000 | CR6261 binding signal (81F11): 318000 | CR6261 binding signal (7B6): 60400 | CR6261 binding signal (86B3): 901000 | CR6261 binding signal (76A10): 137000 | CR6261 binding signal (35H3): 106000 | CR6261 binding signal (69G8): 481000 | CR6261 binding signal (71H2): 1.11e+06 | CR6261 binding signal (8A10): 360000 | CR6261 binding signal (8D7): 73400 | CR6261 binding signal (96G5): 108000 | CR6261 binding signal (91F10): 14800 | CR6261 binding signal (79F8): 185000 | CR6261 binding signal (58A11): 53300 | CR6261 binding signal (53G10): 108000 | CR6261 binding signal (75G5): 1.01e+06 | CR6261 binding signal (11H6): 427000 | CR6261 binding signal (91C8): 334000 | CR6261 binding signal (7D9): 77800 | CR6261 binding signal (2C4): 258000 | CR6261 binding signal (6A1): 300000 | CR6261 binding signal (75E9): 135000 | CR6261 binding signal (10F9): 166000 | CR6261 binding signal (86F1): 159000 | CR6261 binding signal (27B10): 187000 | CR6261 binding signal (50G10): 264000
